Reference: patent publication US11459387B2, “Anti-CD147 antibody” (DAIICHI SANKYO COMPANY, LIMITED, priority 2017, dated 2022)

Experiments:
[1] = system: human liver cell line HepG2; experiment: HepG2 liver cancer model in NOD-scid mice; type: in vivo; conditions: qD1x9 po, n=5; for Average tumor volume: NOD-scid mice
Method: 5×10^6 cells of the human liver cell line HepG2 were suspended in PBS containing 50% Matrigel (Corning Inc., Cat. 354234), and the suspension was inoculated subcutaneously into the axilla of 4 week-old female NOD-scid mice (NOD. CB17-Prkdc/J, purchased from CHARLES RIVER LABORATORIES JAPAN, INC). […] As a control drug, sorafenib (Nexavar tablets 200 mg, Bayer AG), which is a therapeutic agent for liver cancer, was dissolved in a PEG-35 castor oil (Cremophor EL, NACALAI TESQUE, INC., Cat. 09727-14) ethanol solvent according to the reference (Chang et. al., Cancer Chem. Thera. Pharm., 2007) attached to Nexavar tablets, and the solution was orally administered to cancer-bearing mice at 30 mg/kg or 90 mg/kg 9, 10, 11, 12, 13, 16, 17, and 18 days after the inoculation (n=5). The major axis and the minor axis of the inoculated tumor were measured twice a week using an electronic digital caliper (available from MITUTOYO CORPORATION) to calculate the tumor volume by the following formula. Tumor volume (mm^3)=½×minor axis (mm)×minor axis (mm)×major axis (mm)

[2] = system: human peripheral blood mononuclear cells; experiment: Cytokine release assay using human peripheral blood; type: cell-based; conditions: 6 donors
Excerpt: In some antibodies such as OKT3 and TGN1412, administration of the therapeutic antibodies causes an increase in cytokines in the blood by activating immune cells, thereby causing serious cytokine release syndrome (Gaston, R., Kidney International, 1991, 141-148; Suntharalingam, G., et al., N. Engl. J. Med. 2006, 1018-1028). It has been reported that some CD147 antibodies act on immune cells, having an action of increasing production of interferon gamma or interleukin-4 (Hu, J., et al., J. Cell. Mol. Med., 2010, 2132-2143). The toxicity of antibody drugs due to cytokine release syndrome can be predicted by a cytokine release assay using peripheral blood (Vessillier, S. et al., J. Immunolol. Methods, 2015, 43-52).

[3] = system: human pancreatic line PANC-1; experiment: Antibody screening by in-vivo antitumor efficacy, PANC-1 xenograft in NOD-scid mice
Method: 1×10^7 cells of human pancreatic line PANC-1 were suspended in PBS, and the suspension was inoculated subcutaneously into the axilla of NOD-scid mice (CHARLES RIVER LABORATORIES JAPAN, INC., NOD. CB17-Prkdc/J). […] The major axis and the minor axis of the inoculated tumor were measured twice a week using an electronic digital caliper (available from MITUTOYO CORPORATION) to calculate the tumor volume by the following formula. Tumor volume (mm^3)=½×minor axis (mm)×minor axis (mm)×major axis (mm)

[4] = system: human pancreatic line MIA PaCa-2; experiment: ADCC activity, 51Cr release, human PBMC effector cells; type: cell-based; conditions: antibody 0.5 or 5 μg/ml; MIA PaCa-2 target cells
Method: Antibody-dependent cellular cytotoxicity (ADCC) activity can be measured by a ^51Cr release assay method, which measures cell death caused when immune cells having effector activity, an antibody and ^51Cr-labeled target cells are brought into contact. The ADCC activity of the anti-human CD147 antibody of the present invention is measured as follows. Regarding the ADCC activity of the anti-human CD147 antibody, human peripheral blood mononuclear cells (PBMC) are used as effector cells, and a CD147-positive human cancer cell line (for example, pancreatic cancer cell line MIA PaCa-2) is used as ADCC target cells. Cancer cells labeled with a radioisotope, ^51Cr, and the antibody to be evaluated are treated at a concentration of 0.5 or 5 μg/ml at 4° C. for 30 minutes, PBMC separated from human peripheral blood is added at 20 times the proportion of cancer cells, and then cells are cultured for 4 hours at 37° C. in the presence of 5% CO2. […] The measured value of ^51Cr released from ^51Cr-labeled cancer cells treated with Triton-100 is designated as a “Maximum release value” and the measured value of ^51Cr released from ^51Cr-labeled cancer cells treated with antibody in the absence of PBMC is designated as a “Spontaneous release value”. With these values, % Specific release is calculated from the following formula. […]

[5] = system: human pancreatic line MIA PaCa-2; experiment: CDC activity with rabbit complement, CellTiter-Glo; type: cell-based; conditions: antibody 10 μg/ml; rabbit complement 7.5%; 3 hours
Method: Complement-dependent cytotoxicity (CDC) activity can be evaluated by measuring cell death caused when complement contained in blood, an antibody and target cells are brought into contact. The CDC activity of the anti-human CD147 antibody of the present invention is measured as follows. The complement-dependent cytotoxicity activity (CDC activity) of the anti-human CD147 antibody is evaluated using human pancreatic cell line MIA PaCa-2 as target cells. Commercially available rabbit complement (Low Tox-M Rabbit Complement, […] LABORATORIES LIMITED, Cat. CL3051) is used as the complement. […] Target cells are treated with the antibody to be evaluated and the negative control antibody at concentrations of 0, 0.1, 1 or 10 μg/ml for 1 hour at 4° C., the rabbit complement is added in such a manner that the final concentration is 7.5%, the resultant mixture is heated at 37° C. in the presence of 5% CO2 for 3 hours, and then intracellular ATP contained in living cells is measured using the CellTiter-Glo Lumimescent Cell Viability Assay (Promega, Cat. G7572). Luminescent signals obtained using the CellTiter-Glo Lumimescent Cell Viability Assay are quantitatively determined using an EnVision 2104 Multilabel Reader (Perkin Elmer). The measurement is performed three times and the average value and the standard deviation are calculated. […]

[6] = system: human pancreatic line BxPC-3; experiment: SMAD4-negative BxPC-3 pancreatic cancer-bearing model in BALB/c-nu mice; type: in vivo; conditions: antibody 10 mg/kg ip 8, 15 and 22 days after the inoculation; BALB/c-nu mice
Excerpt: The transcription factor, SMAD4, is known as one of the molecules important for activation of SMAD signaling (Zang, et al., Current Biology, 270-276, 1997). It is known that SMAD signaling is partially impaired due to genetic defects of SMAD4 in some pancreatic cancers (Hahn, et al., Science, 350-353, 1996). […] 2.5×10^6 cells of human pancreatic line BxPC-3 (ATCC, Cat. CRL-1687) were suspended in PBS containing […] (Corning Inc., Cat. 354234), and the suspension was inoculated subcutaneously into the axilla of 6 week-old female BALB/c-nu mouse (CAnN. Cg-Foxn1nu/CrlCrlj, purchased from CHARLES RIVER LABORATORIES JAPAN, INC). […] As a control drug, gemcitabine (Eli Lilly Japan K.K., Gemzar®) that is a therapeutic agent for pancreatic cancer was administered to mice bearing tumor via the tail vein at 200 mg/kg 8, 15, 22 days after the inoculation (n=5). The major axis and the minor axis of the inoculated tumor were measured twice a week using an electronic digital caliper (available from MITUTOYO CORPORATION) to calculate the tumor volume by the following formula. Tumor volume (mm^3)=½×minor axis (mm)×minor axis (mm)×major axis (mm)

CNC(=O)c1cc(Oc2ccc(NC(=O)Nc3ccc(Cl)c(C(F)(F)F)c3)cc2)ccn1 [Sorafenib, sorafenib, reference compound]
Number of examples of complete tumor regression ([1]; 30 mg/kg): 0/5
tumor growth inhibition rate ([1]; 30 mg/kg): 18%
Average tumor volume ([1]; 30 mg/kg): 1425 mm^3
Number of examples of complete tumor regression ([1]; 90 mg/kg): 0/5
tumor growth inhibition rate ([1]; 90 mg/kg): 28%
Average tumor volume ([1]; 90 mg/kg): 1252 mm^3

anti-human CD3 antibody (OKT3): comparative antibody in the cytokine release assay (BioLegend Cat. No317326) [reference compound]
acceleration of cell growth in human peripheral blood mononuclear cells [2]: acceleration of cell growth
cytokine release (TNFα, INF-γ, IL-2, IL-6, IL-8, IL-10, MIP-1α) ([2]; human peripheral blood): acceleration of cytokine release

B1: LN22R8: mouse anti-human CD147 monoclonal antibody, Mouse IgG3; light chain variable region SEQ ID NO: 8, heavy chain variable region SEQ ID NO: 10 (antibody, listed as Mus musculus, V domains shown)
VH: QIQLVQSGPELKKPGETVKISCKASGYTFTNYGMNWVKQAPGKGLKWMGWINTYTGEPTYADDFKGRFAFSLETSASTAYLQINNLKNEDTATYFCARGGYGNYGAGAMDYWGQGTSVTVSS
VL: DIQMTQSPSSLSASLGERVSLTCRASLEISGFLSWLQQKPDGTIKRLIYAASILDSGVPKRFSGSRSGSDYSLTISSLESEDFADYYCLQYASYPWTFGGGTKLEIKR
tumor growth inhibition rate ([3]; 10 mg/kg ip administration group, 48th day after the inoculation (final measurement date), NOD-scid mice): 50%
in vivo anti-tumor effect ([3]; antitumor efficacy of Example 1)-7 (PANC-1 xenograft, 10 mg/kg) as listed in Table 3): 50%
ADCC activity (in words) [4]: no ADCC activity
living cells (CDC activity, luminescence of non-treated cells = 100%) [5]: 41.1%
sensitivity of BxPC-3 tumor (in words) [6]: resistant
